The source of these data is PMC6614801.

Usually Kd stands for the concentration at which binding is half-saturated. A lower Kd goes with a tighter complex.

For series [1], the target named is N-terminally His6-tagged NusA^AR2 (E. coli) (UniProt P0AFF6). Nature of the series: SPR; Biacore, Sensor Chip NTA, 20°C; N-terminally His6-tagged NusA^AR2 immobilised; single cycle kinetics with SuhB variants at 25, 50, 100, 150 and 200 nM; 20 mM HEPES–NaOH pH 7.5, 50 mM NaCl, 1 mM DTT. In general terms: In SPR one partner is held on a chip, and binding of the other changes the refractive index at the surface.

In series [2] the test system is SuhB (Escherichia coli DH5α). Nature of the series: double filter binding. To be noted: Hill slope fit, 50 nM RNA, Filter binding: 20 mM HEPES-NaOH pH 7.5, 50 mM NaCl, 1 mM DTT, room temperature, 20 min, SEC buffer not in material.

As to “SuhB^KL251/254AA (from UniProt P0ADG4 1-267) (natural protein)”, in series [1], the equilibrium dissociation constant (Kd) came out at 141 µM.

rrnGnut RNA: in series [2], the Kd amounted to 3.2 µM.
